Reference: patent US20230416371A1 (Chugai, published 2023)

Key:
[1] = target: T1, human FcγRIIIa V (allotype V158) extracellular domain (human, UniProt P08637 17-208); test: SPR Biacore 8K+; KD for FcγRIIb divided by KD for this FcγR
T1 construct: extracellular domain; also called hFcγRIIIaV
Method: (§1) The extracellular domains of FcγRs were produced by the method described in WO2014104165. The interaction between the produced antibodies and human FcγRs was analyzed using Biacore 8K+by the method below. For the running buffer, 50 mM Na-Phosphate, 150 mM NaCl, and 0.05% Tween20 (pH 7.4) was used, and measurement was performed at 25° C. The sensor chip used was a Series S SA chip (GE Healthcare) onto which CaptureSelect Human Fab-kappa Kinetics Biotin Conjugate (Thermo Fisher Scientific) was immobilized. An antibody of interest was captured onto this chip, and each FcγR diluted with the running buffer was allowed to interact with it. The chip was regenerated using 10 mM Glycine-HCl (pH 1.5), and repeatedly used to capture antibodies and perform measurement. The dissociation constants KD (mol/L) of each antibody for FcγRs were calculated using Biacore Insight Evaluation Software, with a steady state affinity model for the dissociation constant for FcγRIIb and a 1:1 Langmuir binding model for the dissociation constants for the other FcγRs (Table 2).

[2] = target: T2, human FcγRIIIa F (allotype F158) extracellular domain (human, UniProt P08637 17-208); test: as above
T2 construct: extracellular domain; also called hFcγRIIIaF
Method: as §1

T1 sequence (P08637 17-208 F176V): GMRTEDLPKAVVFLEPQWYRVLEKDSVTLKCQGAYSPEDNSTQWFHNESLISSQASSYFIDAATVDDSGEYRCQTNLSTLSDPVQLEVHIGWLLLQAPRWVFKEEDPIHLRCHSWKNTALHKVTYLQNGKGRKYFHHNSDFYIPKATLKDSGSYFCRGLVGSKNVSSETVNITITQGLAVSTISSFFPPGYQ
T2 sequence (P08637 17-208): as the sequence (P08637 17-208 F176V) above, with V160F counted along it

B1: EGL-ART6 (H240-Kn462/L73-k0//H240-HI445/L73-k0) (antibody, human IgG1, kappa)
heavy 1: QDQLVQSGAEVKKPGASVKVSCKASGFNIKDTYIQWVRQAPGQGLEWMGRIDPLRKQTKYREKFEGRVTITADTSTNTAYMELSSLRSEDTAVYYCVRSGREFDYWGQGTLVTVSSASTKGPSVFPLAPSSKSTSGGTAALGCLVKDYFPEPVTVSWNSGALTSGVHTFPAVLQSSGLYSLSSVVTVPSSSLGTQTYICNVNHKPSNTKVDKKVEPKSCDKTHTCPPCPAPEFQWGPMVFLFPPKPKDVLMISRTPEVTCVVVDVSDEEPEVKFNWYVDGVEVHNAKTKPREEQYNATYRVVSVLPVLHQDWLNGKEYKCKVSNDALPAPIEKTISKAKGQPREPQVCTLPPSRDELTKNQVSLWCLVKGFYPSDIAVEWESNGQPENNYKTTPPVLDSDGSFFLYSKLTVDKSRWQQGNVFSCSVMHEALHNHYTQKSLSLSP
heavy 2: QDQLVQSGAEVKKPGASVKVSCKASGFNIKDTYIQWVRQAPGQGLEWMGRIDPLRKQTKYREKFEGRVTITADTSTNTAYMELSSLRSEDTAVYYCVRSGREFDYWGQGTLVTVSSASTKGPSVFPLAPSSKSTSGGTAALGCLVKDYFPEPVTVSWNSGALTSGVHTFPAVLQSSGLYSLSSVVTVPSSSLGTQTYICNVNHKPSNTKVDKKVEPKSCDKTHTCPPCPAPELLAGPSVFLFPPKPKDVLMISRTPEVTCVVVDVSHEEPEVKFNWYVDGVEVHNAKTKPREEQYNATYRVVSVLPVLHQDWLNGKEYKCKVSNDALPKPDEETISKAKGQPREPQVYTLPPSRCELTKNQVSLSCAVKGFYPSDIAVEWESNGQPENNYKTTPPVLDSDGSFFLVSKLTVDKSRWQQGNVFSCSVMHEALHNHYTQKSLSLSP
light: DIQMTQSPSSLSASVGDRVTITCRASQDIHKYIAWYQQKPGQAPRLLIQYTSTLQPGVPSRFSGSGSGTDYTFTISSLQPEDIATYYCLQYEQLRTFGGGTKVEIKRTVAAPSVFIFPPSDEQLKSGTASVVCLLNNFYPREAKVQWKVDNALQSGNSQESVTEQDSKDSTYSLSSTLTLSKADYEKHKVYACEVTHQGLSSPVTKSFNRGEC
notes: Anti-human Epiregulin IgG1 with heterodimeric (knobs-into-holes) Fc variant
- A/I ratio (KD for FcγRIIb divided by KD for each FcγR) [1]: 2030
- A/I ratio (KD for FcγRIIb divided by KD for each FcγR) [2]: 975
